Measured values: patent US20260232769A1 (WUXI BIOLOGICS IRELAND, published 2026)

T1: IL-2Rβ/γc complex (intermediate affinity receptor) on primary human CD8+ T cells (human, UniProt P14784 27-551; P31785 23-369)
T1 sequence (looked up) 1: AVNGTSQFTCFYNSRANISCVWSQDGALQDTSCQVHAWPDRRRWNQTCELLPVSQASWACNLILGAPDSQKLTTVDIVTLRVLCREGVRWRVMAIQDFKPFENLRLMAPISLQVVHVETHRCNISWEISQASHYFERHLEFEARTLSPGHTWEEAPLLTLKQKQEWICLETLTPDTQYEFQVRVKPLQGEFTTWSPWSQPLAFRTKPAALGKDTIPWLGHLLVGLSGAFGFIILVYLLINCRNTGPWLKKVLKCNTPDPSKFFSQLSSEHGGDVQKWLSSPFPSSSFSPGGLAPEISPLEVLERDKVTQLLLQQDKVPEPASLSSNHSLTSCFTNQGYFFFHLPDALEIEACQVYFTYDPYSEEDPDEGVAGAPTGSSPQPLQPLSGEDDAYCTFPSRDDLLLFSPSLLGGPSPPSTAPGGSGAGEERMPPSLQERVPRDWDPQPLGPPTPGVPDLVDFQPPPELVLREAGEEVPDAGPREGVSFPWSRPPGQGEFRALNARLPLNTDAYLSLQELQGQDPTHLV
T1 sequence (looked up) 2: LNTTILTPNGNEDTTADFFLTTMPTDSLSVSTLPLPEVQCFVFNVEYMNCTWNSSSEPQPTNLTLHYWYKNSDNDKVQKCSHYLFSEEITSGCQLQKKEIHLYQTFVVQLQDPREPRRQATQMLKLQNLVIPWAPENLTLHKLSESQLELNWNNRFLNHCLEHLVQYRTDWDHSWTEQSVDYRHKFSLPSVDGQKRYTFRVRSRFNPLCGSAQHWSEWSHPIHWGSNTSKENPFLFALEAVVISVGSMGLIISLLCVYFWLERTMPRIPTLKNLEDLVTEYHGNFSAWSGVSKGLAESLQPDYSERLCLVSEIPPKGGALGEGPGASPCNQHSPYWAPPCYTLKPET

T2: IL-2Rα/β/γc complex (high affinity receptor) on human activated CD8+ T cells (human, UniProt P01589 22-272; P14784 27-551; P31785 23-369)
T2 sequence (looked up) 1: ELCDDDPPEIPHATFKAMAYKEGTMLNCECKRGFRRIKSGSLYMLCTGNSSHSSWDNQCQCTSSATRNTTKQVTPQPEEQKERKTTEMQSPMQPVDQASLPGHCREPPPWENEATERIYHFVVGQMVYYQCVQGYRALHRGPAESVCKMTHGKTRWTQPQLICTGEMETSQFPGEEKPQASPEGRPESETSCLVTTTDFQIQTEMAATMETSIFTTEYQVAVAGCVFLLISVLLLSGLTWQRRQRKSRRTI
T2 sequence (looked up) 2: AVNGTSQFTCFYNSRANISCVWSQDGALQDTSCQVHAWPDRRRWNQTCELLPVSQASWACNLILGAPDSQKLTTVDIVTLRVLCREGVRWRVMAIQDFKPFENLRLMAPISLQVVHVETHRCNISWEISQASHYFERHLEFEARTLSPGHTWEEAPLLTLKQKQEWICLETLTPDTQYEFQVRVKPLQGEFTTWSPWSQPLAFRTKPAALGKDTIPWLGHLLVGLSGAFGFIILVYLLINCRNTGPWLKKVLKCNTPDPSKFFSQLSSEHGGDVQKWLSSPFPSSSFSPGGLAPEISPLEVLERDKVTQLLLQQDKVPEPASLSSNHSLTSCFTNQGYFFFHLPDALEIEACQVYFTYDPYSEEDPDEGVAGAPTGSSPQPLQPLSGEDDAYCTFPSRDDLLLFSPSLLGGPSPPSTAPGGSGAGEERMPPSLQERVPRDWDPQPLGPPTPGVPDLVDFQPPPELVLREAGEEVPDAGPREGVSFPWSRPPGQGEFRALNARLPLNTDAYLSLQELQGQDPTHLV
T2 sequence (looked up) 3: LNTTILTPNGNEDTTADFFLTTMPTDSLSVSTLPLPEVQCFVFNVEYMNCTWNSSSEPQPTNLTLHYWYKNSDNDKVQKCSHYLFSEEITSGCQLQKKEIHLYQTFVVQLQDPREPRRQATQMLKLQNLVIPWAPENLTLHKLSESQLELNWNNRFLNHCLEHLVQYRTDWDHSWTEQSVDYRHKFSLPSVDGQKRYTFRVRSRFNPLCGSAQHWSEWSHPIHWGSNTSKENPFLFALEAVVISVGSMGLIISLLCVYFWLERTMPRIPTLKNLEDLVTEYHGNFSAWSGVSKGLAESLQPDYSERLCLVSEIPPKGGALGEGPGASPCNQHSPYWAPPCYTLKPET


Columns and labels:
[1] = target: T1, IL-2Rβ/γc complex (intermediate …); experiment: cell-based or functional assay
[2] = target: T2, IL-2Rα/β/γc complex (high affinity …); experiment: cell-based or functional assay

| Potency reduction, pSTAT5, human primary CD8+ T [1] [fold] | pSTAT5 EC50, human primary CD8+ T [1] [nM] | Potency reduction, pSTAT5, human activated CD8+ T [2] [fold] | pSTAT5 EC50, human activated CD8+ T [2] [nM] | Binder |
| --- | --- | --- | --- | --- |
| 2.7 | 300 | 14.7 | 0.25 | W3XX115-T2U0.E44-48.uIgG4V322 (Fc fusion) APTSSSTKKTQLQLEHLLLDLQMILNGINNYKNPKLTRMLTFKFYMPKKATELKHLQCLEEELKPLEEVLNLAQSKNFHLRPRDLISNINVIVLELKGSETTFMCEYADETATIVEFLNRWYTFCQSILESKYGPPCPPCPAPEAAGGPSVFLFPPKPKDTLMISRTPEVTCVVVDVSQEDPEVQFNWYVDGVEVHNAKTKPREEQFNSTYRVVSVLTVLHQDWLNGKEYKCKVSNKGLPSSIEKTISKAKGQPREPQVYTLPPCQEEMTKNQVSLWCLVKGFYPSDIAVEWESNGQPENNYKTTPPVLDSDGSFFLYSRLTVDKSRWQEGNVFSCSVMHEALHNHYTQKSLSLSLG heavy: EIQLQQSGPELVKPGASVKVSCKASGYSFTDYNMYWVKQSHGESLEWIGYIDPYNGGTRYNQKFKGKATLTVDKSSSTAFMHLNSLTSEDSAVYYCARNGHWDGAWFAYWGQGTLVTVSAASTKGPSVFPLAPCSRSTSESTAALGCLVKDYFPEPVTVSWNSGALTSGVHTFPAVLQSSGLYSLSSVVTVPSSSLGTKTYTCNVDHKPSNTKVDKRVESKYGPPCPPCPAPEAAGGPSVFLFPPKPKDTLMISRTPEVTCVVVDVSQEDPEVQFNWYVDGVEVHNAKTKPREEQFNSTYRVVSVLTVLHQDWLNGKEYKCKVSNKGLPSSIEKTISKAKGQPREPQVCTLPPSQEEMTKNQVSLSCAVKGFYPSDIAVEWESNGQPENNYKTTPPVLDSDGSFFLVSRLTVDKSRWQEGNVFSCSVMHEALHNHYTQKSLSLSLG light: DIQMNQSPSSLSASLGDTITITCHASQNINVWLSWYQQKPGNIPKLLIYKASNLHTGVPSRFSGSRSGTGFTLTISSLQPEDIATYYCHQGQSYPFTFGSGTKLEIKRTVAAPSVFIFPPSDEQLKSGTASVVCLLNNFYPREAKVQWKVDNALQSGNSQESVTEQDSKDSTYSLSSTLTLSKADYEKHKVYACEVTHQGLSSPVTKSFNRGEC |
| 3.8 | 425 | 22.2 | 0.38 | W3XX115-T2U0.E44-49.uIgG4V322 (Fc fusion) APTSSSTKKTQLQLEHLLLDLQMILNGINNYDNPKLTRMLTFKFYMPKKATELKHLQCLEEELKPLEEVLNLAQSKNFHLRPRDLISNINVIVLELKGSETTFMCEYADETATIVEFLNRWITFCQSILESKYGPPCPPCPAPEAAGGPSVFLFPPKPKDTLMISRTPEVTCVVVDVSQEDPEVQFNWYVDGVEVHNAKTKPREEQFNSTYRVVSVLTVLHQDWLNGKEYKCKVSNKGLPSSIEKTISKAKGQPREPQVYTLPPCQEEMTKNQVSLWCLVKGFYPSDIAVEWESNGQPENNYKTTPPVLDSDGSFFLYSRLTVDKSRWQEGNVFSCSVMHEALHNHYTQKSLSLSLG heavy: EIQLQQSGPELVKPGASVKVSCKASGYSFTDYNMYWVKQSHGESLEWIGYIDPYNGGTRYNQKFKGKATLTVDKSSSTAFMHLNSLTSEDSAVYYCARNGHWDGAWFAYWGQGTLVTVSAASTKGPSVFPLAPCSRSTSESTAALGCLVKDYFPEPVTVSWNSGALTSGVHTFPAVLQSSGLYSLSSVVTVPSSSLGTKTYTCNVDHKPSNTKVDKRVESKYGPPCPPCPAPEAAGGPSVFLFPPKPKDTLMISRTPEVTCVVVDVSQEDPEVQFNWYVDGVEVHNAKTKPREEQFNSTYRVVSVLTVLHQDWLNGKEYKCKVSNKGLPSSIEKTISKAKGQPREPQVCTLPPSQEEMTKNQVSLSCAVKGFYPSDIAVEWESNGQPENNYKTTPPVLDSDGSFFLVSRLTVDKSRWQEGNVFSCSVMHEALHNHYTQKSLSLSLG light: DIQMNQSPSSLSASLGDTITITCHASQNINVWLSWYQQKPGNIPKLLIYKASNLHTGVPSRFSGSRSGTGFTLTISSLQPEDIATYYCHQGQSYPFTFGSGTKLEIKRTVAAPSVFIFPPSDEQLKSGTASVVCLLNNFYPREAKVQWKVDNALQSGNSQESVTEQDSKDSTYSLSSTLTLSKADYEKHKVYACEVTHQGLSSPVTKSFNRGEC |
